Results: PMC12637224, “The nonconserved integrin cytoplasmic region determines integrin subtype–specific characteristics by modulating talin1 binding kinetics” (The Journal of Biological Chemistry, 2025)

Tests used:
[1] = target: T1, HaloTag-fused talin1 (HT-talin1), endogenous knock-in in mouse primary T cells (mouse (endogenous knock-in in mouse T …, UniProt P26039 1-2541, HaloTag labelled with HT SaraFluor 650T Ligand)); test: activated T cells, on MAdCAM1
[2] = target: T1, HaloTag-fused talin1 (HT-talin1), …; test: naive T cells, on MAdCAM1

koff [1]: 0.61 s⁻¹
koff [2]: 0.576 s⁻¹
B1: α4/β7 integrin, endogenous on mouse primary T cells (receptor)
chain 1: YNLDPENALLYQGPSGTLFGYSVVLHSHGSKRWLIVGAPTASWLSNASVVNPGAIYRCGIRKNPNQTCEQLQSGSPSGEPCGKTCLEERDNQWLGVTLSRQPGENGSIVTCGHRWKNIFYMKSDNKLPTGICYVMPSDLRTELSKRMAPCYKDYTRKFGENFASCQAGISSFYTQDLIVMGAPGSSYWTGTVFVYNITTNQYKAFVDRQNQVKFGSYLGYSVGAGHFRSPHTTEVVGGAPQHEQIGKAYIFSIDENELNIVYEMKGKKLGSYFGASVCAVDLNADGFSDLLVGAPMQSTIREEGRVFVYINSGMGAVMVEMERVLVGSDKYAARFGESIANLGDIDNDGFEDIAIGAPQEDDLRGAVYIYNGRVDGISSTYSQRIEGQQISKSLRMFGQSISGQIDADNNGYVDVAVGAFQSDSAVLLRTRPVVIVEASLSHPESVNRTKFDCTENGLPSVCMHLTLCFSYKGKEVPGYIVLFYNVSLDVHRKAESPSRFYFFSNGTSDVITGSIRVSSSGEKCRTHQAFMRKDVRDILTPIHVEATYHLGHHVITKRNTEEFPPLQPILQQKKEKDVIRKMINFARFCAYENCSADLQVSAKVGFLKPYENKTYLAVGSMKTIMLNVSLFNAGDDAYETTLNVQLPTGLYFIKILDLEEKQINCEVTESSGIVKLACSLGYIYVDRLSRIDISFLLDVSSLSRAHEDLSISVHASCENEGELDQVRDNRVTLTIPLRYEVMLTVHGLVNPTSFVYGSSEENEPETCMAEKLNLTFHVINTGISMAPNVSVKIMVPNSFLPQDDKLFNVLDVQTTTGQCHFKHYGRECTFAQQKGIAGTLTDIVKFLSKTDKRLLYCMKADQHCLDFLCNFGKMESGKEASVHIQLEGRPSILEMDETSSLKFEIKATAFPEPHPKVIELNKDENVAHVFLEGLHHQRPKRHFTIIIITISLLLGLIVLLLISCVMWKAGFFKRQYKSILQEENRRDSWSYVNSKSNDD
chain 2: ELDTKITSSGEAAEWEDPDLSLQGSCQPVPSCQKCILSHPSCAWCKQLNFTASGEAEARRCARREELLARGCPAQELEEPRGRQEVLQDKPLSQGDRGEGATQLAPQRIRVTLRPGEPQKFRVRFLRAAGYPVDLYYLMDLSYSMKDDLERVRQLGHALLVRLQEVTHSVRIGFGSFVDKTVLPFVSTVPSKLHHPCPSRLERCQPPFSFHHVLSLTGDAQAFEREVGRQNVSGNLDSPEGGFDAILQAALCQEQIGWRNVSRLLVFTSDDTFHTAGDGKLGGIFMPSDGRCHLDSNGVYTNSAEFDYPSVGQVAQALTAANIQPIFAVTGATLPVYQELRQLIPKSAVGELSEDSSNVVQLIMDAYDSLSSTVTLEHSPLPPGVSISFESHCKGPEKTEGEAGDRGQCNDVRVNQTVDFWVTLQATHCLPEAHVLRLWALGFSEELTVELHTVCDCNCGDAQPHAPYCSDGQGDLQCGICSCAPGRLGQLCECSEADLSSPDLESGCRAPNGTGPLCSGKGRCQCGRCSCSGQSSGRLCECDDASCERHEGILCGGFGHCQCGVCHCHANHTGRACECSKSVDSCVSPEGGLCSGHGYCKCNRCQCLDGYYGALCDQCLGCKSPCEQYRDCAECGAFGTGPLAANCSVVCADVNVTLTLAPNLDDGWCKERTIDNQLFFFLVEHAASGIVLRVRPQEKGVDHTRAIILGCTGGIVAVGLGLVLAYRLSVEIYDRREYRRFEKEQQQLNWKQDNNPLYKSAITTTVNPRFQGTNGRSPSLSLTREAD
